This is an account of results in patent US20210122827A1 (GMAX BIOPHARM, published 2021).

The target in assay [1] is T1, human glucagon receptor (human, UniProt P47871 26-477).
T1 construct: also called hGCGR; human GCGR
Nature of the assay: FACS on CHO-DHFR-hGCGR cells, antibody at 500, 50 and 5 nM; control is blank CHO-DHFR- cells.
Experimental: PBS containing 10 mM EDTA was used to detach the CHO-DHFR-hGCGR cells and 10⁵ cells/tube was dispensed into 1.5 mL EP tubes, and the supernatant was removed after centrifugation, The negative control sample was resuspended with a loading buffer (PBS, 2% FBS). For the positive control, 200 μL hGCGR antibody solution of specific concentrations was added to the cells and incubated at room temperature; after incubation, the cells were then centrifuged at 1500 rpm to remove the supernatant, washed with a FACS loading buffer and centrifuged again. The cells were resuspended with addition (200 μL/well) of a FITC labeled goat anti-mouse fluorescent antibody at 1:50 dilution (BD Pharmingen) and incubated at room temperature for 30 min in the dark. The supernatant was removed after centrifugation, and cells were washed with FACS loading buffer, centrifuged again, and resuspended with the loading buffer for FACS analysis.

For assay [2], the target named is T1, human glucagon receptor. Nature of the assay: cell-based or functional assay.

B1: mouse ascites antibody L4H4 (antibody, V domains shown)
VH: DVQLQESGPGLVKPSQSLSLTCTVTGYSITSDYAWTWIRQFPGNKLEWMGYISFTGTTSYTPSLKSRISITRDTSKNQFFLYLNSVTAEDTATYYCVRSVIFTIDSWGQGTSVTVSS
VL: DIQMTQSPASLSASVGETVTITCRASGNIHNYLTWFQQRRGKSPQLLVYNAKALADGVPSRFSGSGSGTEYSLKINSLQPEDFGDYYCLHFWSSPLTFGAGTKLELKR
notes: Murine antibody produced from mouse ascites; also called GCGR antibody L4H4
On to B1, for which the binding result with human glucagon receptor [1] is “binds”.

B2: hGCGR antibody L7H7 (antibody, V domains shown)
VH: QVQLVQSGAEVKKPGASVKVSCKASGYTFTEYTMHWVRQAPGQRLEWIGGINPDNGGPSYSQKFKGRVTITRDTSASTAYMELSSLRSEDTAVYYCAEETHDYDKFAYWGQGTLVTVSS
VL: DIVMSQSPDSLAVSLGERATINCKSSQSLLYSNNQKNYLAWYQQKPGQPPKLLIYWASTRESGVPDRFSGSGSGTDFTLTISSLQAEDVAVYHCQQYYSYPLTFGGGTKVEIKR
Take B2: in the assay with human glucagon receptor [2], the “IC50, antagonism of glucagon-activated hGCGR signaling, direct cAMP assay on CHO-DHFR- cells expressing human GCGR” value turned out to be 139 nM.
